Assay results as given in patent publication EP3505186B1, “NUCLEOPHILIC CATALYSTS FOR OXIME LINKAGE” (Takeda Pharmaceutical Company Limited, priority 2010, dated 2012).

Columns and labels:
[1] = Specific activity of the EPO conjugate: biological activity by methods known in the art and total protein (Bradford)
FIX chromogenic activity = assay: Specific activity of the rFIX conjugate: FIX chromogenic (and clotting) activity and total protein; format: biochemical
Method: The free rFIX was removed by means of anion exchange chromatography (AEC). The reaction mixture was diluted with 15 ml Buffer A (50 mM Hepes, 5 mM CaCl2, pH 7.5) and loaded onto a 20 ml HiPrep QFF 16/10 column (GE Healthcare, Fairfield, CT) pre-equilibrated with Buffer A. The column was then eluted with Buffer B (50 mM Hepes, 1 M NaCl, 5 mM CaCl2, pH 7.5). Free rFIX elutes at a conductivity between 12-25 mS/cm and the conjugate between 27-45 mS/cm. The conductivity of the conjugate containing fractions was subsequently raised to 190 mS/cm with Buffer C (50 mM Hepes, 5M NaCl, 5 mM CaCl2, pH 6.9) and loaded onto a 20 ml HiPrep Butyl FF 16/10 column (GE Healthcare, Fairfield, CT) pre-equilibrated with Buffer D (50 mM Hepes, 3 M NaCl, 5 mM CaCl2, pH 6.9). Free aminooxy-PSA reagent was washed out within 5 CV Buffer D. Subsequently the conjugate is eluted with 100 % Buffer E (50 mM Hepes, 5 mM CaCl2, pH 7.4). The conjugate containing fractions were concentrated by UF/DF using Vivaspin 15R 10 kD centrifugal filtrator. The final diafiltration step was performed against histidine buffer, pH 7.2 containing 150 mM NaCl and 5 mM CaCl2. The preparation was analytically characterized by measuring total protein (Bradford) and FIX chromogenic activity.
The free rFIX is removed by means of anion exchange chromatography (AEC). The reaction mixture is diluted with appropriate amounts of Buffer A (50 mM Hepes, 5 mM CaCl2, pH 7.5) to correct the solutions conductivity and pH prior to load onto a 20 ml HiPrep QFF 16/10 column (GE Healthcare, Fairfield, CT) pre-equilibrated with buffer A. Then the column is eluted with Buffer B (50 mM Hepes, 1 M NaCl, 5 mM CaCl2, pH 7.5). Free rFIX is eluted by a step gradient using 25 % of Buffer B, which results in a conductivity between 12-25 mS/cm in the obtained fraction and the conjugate using a step gradient of 50 % Buffer B, which results in a conductivity between between 27-45 mS/cm in the conjugate fraction. […] Free aminooxy-PSA reagent is washed out within 5 CV Buffer D. Subsequently, the conjugate is eluted with 100 % Buffer E (50 mM Hepes, 5 mM CaCl2, pH 7.4). The conjugate containing fractions are concentrated by UF/DF using a 10 kD membrane made of regenerated cellulose (88 cm2, cut-off 10 kD, Millipore). The final diafiltration step is performed against L-histidine buffer, pH 7.2 containing 150 mM NaCl and 5 mM CaCl2. The preparation is analytically characterized by measuring total protein (Bradford and BCA procedure) and FIX chromogenic- and clotting activity. For the PSA-rFIX conjugate a specific activity of > 50 % in comparison to native rFIX is determined.
The free rFIX was removed by means of anion exchange chromatography (AEC). […]

[2] = Specific activity of the interferon-gamma conjugate: biological activity by methods known in the art and total protein (Bradford)
Method: (§1) The free Interferon-gamma is removed by means of cation exchange chromatography (CEC). The reaction mixture is diluted with 20 ml Buffer A (50 mM Hepes, pH 6.5) and loaded onto a 20 ml HiPrep SPFF 16/10 column (GE Healthcare, Fairfield, CT) pre-equilibrated with Buffer A. Then the column is eluted with Buffer B (50 mM Hepes, 1 M NaCl, pH 6.5). Free interferon-gamma is eluted by washing the column with 25 % Buffer B and the conjugate at 50 % Buffer B. The conductivity of the conjugate containing fractions is subsequently raised to -190 mS/cm with Buffer C (50 mM Hepes, 5 M NaCl, pH 6.9) and loaded onto a 20 ml HiPrep Butyl FF 16/10 column (GE Healthcare, Fairfield, CT) pre-equilibrated with Buffer D (50 mM Hepes, 3 M NaCl, pH 6.9). Free PSA-reagent is washed out within 5 CV Buffer D. Subsequently, the conjugate is eluted with 100 % Buffer E (50 mM Hepes, pH 6.9). The conjugate containing fractions are concentrated by UF/DF using a 10 kD membrane made of regenerated cellulose (88 cm2, cut-off 10 kD, Millipore). The final diafiltration step is performed against histidine buffer, pH 6.9 containing 150 mM NaCl. The preparation is analytically characterized by measuring total protein (Bradford) and biological activity according to methods known in the art. For the PSA-Interferon-gamma conjugate a specific activity of > 50 % in comparison to native Interferon-gamma is determined. The conjugate is additionally analytically characterized by Size Exclusion HPLC using a Agilent 1200 HPLC system equipped with a Shodex KW 803 column under conditions as previously described (Kolarich et al, Transfusion 2006;46:1959-77). It is shown that the preparation contains no free Interferon gamma.
as §1, with “free interferon gamma” for “free Interferon-gamma”, “10 kD /” for “10 kD,”, “the PSAinterferon-gamma” for “the PSA-Interferon-gamma”, “native interferon-gamma” for “native Interferon-gamma”, “free interferon-gamma.” for “free Interferon gamma.”
The free interferon gamma is removed by means of cation exchange chromatography (CEC). […]

PSA-EPO conjugate: erythropoietin polysialylated with 20 kD aminooxy-PSA reagent, m-toluidine as catalyst
specific activity in comparison to native EPO ([1]; Reference Example 18 Method 1, alternative procedure (oxidation, then m-toluidine and 20 kD aminooxy-PSA, 5-fold)): > 50%
specific activity in comparison to native EPO ([1]; Reference Example 18 Method 3, alternative procedure (simultaneous, 20 kD aminooxy-PSA, 5-fold)): > 50%

PSA-rFIX conjugate: rFIX polysialylated via oxidized carbohydrate with 20 kD aminooxy-PSA reagent, m-toluidine as catalyst
specific activity in comparison to native rFIX (FIX chromogenic activity; Reference Example 11 Method 1 (oxidation, UF/DF, then m-toluidine and 20 kD aminooxy-PSA), FIX chromogenic activity, Bradford): > 50%
specific activity in comparison to native rFIX (FIX chromogenic activity; Reference Example 11 Method 2 (oxidation, UF/DF, then 10 mM m-toluidine and 20 kD aminooxy-PSA), FIX chromogenic- and clotting activity, Bradford and BCA): > 50%
specific activity in comparison to native rFIX (FIX chromogenic activity; Reference Example 11 Method 3 (simultaneous periodate, m-toluidine, 20 kD aminooxy-PSA), FIX chromogenic activity, Bradford): > 50%
specific activity in comparison to native rFIX (FIX chromogenic activity; Reference Example 11 Method 4 (simultaneous, 2 mg rFIX / ml), FIX chromogenic- and clotting activity, Bradford and BCA): > 50%

PEG-EPO conjugate: EPO PEGylated with a linear 20 kD PEGylation reagent containing an aminooxy group, m-toluidine as catalyst
specific activity in comparison to native EPO ([1]; Reference Example 32 Method 1, alternative (oxidation, then m-toluidine and 20 kD aminooxy-PEG, 5-fold)): > 50%
specific activity in comparison to native EPO ([1]; Reference Example 32 Method 3, alternative (simultaneous, 20 kD aminooxy-PEG, 5-fold)): > 50%

B1: PSA-Interferon-gamma conjugate: interferon-gamma polysialylated with 20 kD aminooxy-PSA reagent, m-toluidine as catalyst (conjugate, UniProt P01579 24-161, looked up)
Interferon gamma: QDPYVKEAENLKKYFNAGHSDVADNGTLFLGILKNWKEESDRKIMQSQIVSFYFKLFKNFKDDQSIQKSVETIKEDMNVKFFNSNKKKRDDFEKLTNYSVTDLNVQRKAIHELIQVMAELSPAAKTGKRKRSQMLFRG
modifications: polysialic acid 20 kD
notes: interferon-gamma polysialylated with 20 kD aminooxy-PSA reagent, m-toluidine as catalyst
specific activity in comparison to native interferon-gamma ([2]; Reference Example 27 Method 1 (oxidation, then m-toluidine and 20 kD aminooxy-PSA, 5-fold)): > 50%
specific activity in comparison to native interferon-gamma ([2]; Reference Example 27 Method 2 (simultaneous, 20 kD aminooxy-PSA, 5-fold)): > 50%
specific activity in comparison to native interferon-gamma ([2]; Reference Example 27 Method 3 (simultaneous, 20 kD aminooxy-PSA, 5-fold)): > 50%

B2: PEG-interferon-gamma conjugate: interferon-gamma PEGylated with a linear 20 kD aminooxy PEGylation reagent, m-toluidine as catalyst (conjugate, UniProt P01579 24-161, looked up)
Interferon gamma: B1 Interferon gamma
modifications: PEG 20 kD
notes: interferon-gamma PEGylated with a linear 20 kD aminooxy PEGylation reagent, m-toluidine as catalyst
specific activity in comparison to native Interferon gamma ([2]; Reference Example 41 Method 1 (oxidation, then m-toluidine and 20 kD aminooxy-PEG, 5-fold)): > 50%
specific activity in comparison to native interferon-gamma ([2]; Reference Example 41 Method 3 (simultaneous, 20 kD aminooxy-PEG, 5-fold)): > 50%
